Laboratory results from patent publication US20210230292A1 (DIATHEVA S R L, published 2021).

T1: human CD99ecd/GST (human, UniProt P14209 23-122)
T1 construct: Expressed in E. coli BL21(DE3), purified on Glutathione Sepharose; also called CD99ecd/GST antigen; recombinant CD99; not shown: glutathione-S-transferase as encoded by vector pGEX-2T (GE Healthcare); CD99ecd fused downstream of it through the BamHI
T1 sequence: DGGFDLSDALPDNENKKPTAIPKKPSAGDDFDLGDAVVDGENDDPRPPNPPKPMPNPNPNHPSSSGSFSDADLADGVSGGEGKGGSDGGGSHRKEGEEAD

B1: C7IgG4 (antibody)
heavy: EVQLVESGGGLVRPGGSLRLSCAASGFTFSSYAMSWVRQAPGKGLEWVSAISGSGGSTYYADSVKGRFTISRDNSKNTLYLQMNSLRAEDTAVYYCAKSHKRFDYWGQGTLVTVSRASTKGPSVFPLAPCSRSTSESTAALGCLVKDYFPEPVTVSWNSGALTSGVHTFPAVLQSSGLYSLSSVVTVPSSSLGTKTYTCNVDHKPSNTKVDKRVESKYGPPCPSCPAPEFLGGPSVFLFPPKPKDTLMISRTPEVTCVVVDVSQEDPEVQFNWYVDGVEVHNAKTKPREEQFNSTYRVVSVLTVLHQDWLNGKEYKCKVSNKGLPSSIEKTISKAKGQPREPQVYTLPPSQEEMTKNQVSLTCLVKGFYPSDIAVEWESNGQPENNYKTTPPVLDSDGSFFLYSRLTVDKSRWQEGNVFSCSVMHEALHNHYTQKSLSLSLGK
light: SSELTQDPAVSVALGQTVRITCQGDSLRSYYASWYQQKPGQAPVLVIYGKNNRPSGIPDRFSGSSSGNTASLTITGAQAEDEADYYCNSSFPRTSSVVFGGGTKLTVLGQPKANPTVTLFPPSSEELQANKATLVCLISDFYPGAVTVAWKADGSPVKAGVETTKPSKQSNNKYAASSYLSLTPEQWKSHRSYSCQVTHEGSTVEKTVAPTECS
notes: VH and VL of scFvC7 fused to human IgG4 constant regions; produced in Expi293F cells; also called IgG4wt; C7IgG4 wt
B2: C7IgG1 (antibody)
heavy: not shown
light: B1 light
notes: VH and VL of scFvC7 fused to human IgG1 constant regions; produced in Expi293F cells

Molecular target: T1, human CD99ecd/GST
Test: competitive ELISA (Rath 1988), CD99ecd/GST coated and soluble CD99ecd/GST as inhibitor
Protocol: The binding affinity, expressed as the dissociation constant (kd) of scFv C7, C7dAbd, C7IgG4 and C7IgG1 for CD99, was determined by analysing the saturation of binding at equilibrium with a competitive ELISA assay according to the procedure described in Rath S 1988 with small variations. […] For this purpose, 96-well plates were sensitized by distributing 500 ng/well of CD99ecd/GST diluted in 0.5M carbonate buffer, pH 9.6, and incubating ON at 4° C. After 3 washes with PBS supplemented with 0.05% V/V of Tween20, the plates were blocked with a 1% W/V solution of BSA in PBS (PBSB), pH 7.4, for 60 min. at 37° C. After washing, the plates were incubated for 1 hour at 37° C. with serial dilutions of C7 (from 200 μg/ml to 0.03 μg/ml in triplicate) diluted in PBSB and dispensed (100 μl/well). The plates were incubated at 37° C. for 90 minutes. After washing a dilution of polyclonal anti-scFv diluted 1:500 in PBSB was dispensed, 100 μl/well, and incubated for 60 minutes at 37° C. […]
A competitive ELISA assay was then set up. […] The scFvC7 and C7 diabody signal was determined by dispensing, in a first step, a polyclonal anti-scFv antibody generated in rabbits immunized with scFvC7 and diluted 1:500 v/v in PBSB and subsequently with an anti-rabbit HRP diluted 1:1000 v/v. […]

Row | Binder | Kd [µM]
1 | B1 | 0.00586
2 | B2 | 9
